Data on two molecules can be found in patent US20180250364A1, “Methods of Using Interleukin-10 for Treating Diseases and Disorders” (published 2018).

Assay [1] addresses T1, mIL-10 receptors (R1 and R2) (mouse, UniProt Q61727).
T1 sequence 1: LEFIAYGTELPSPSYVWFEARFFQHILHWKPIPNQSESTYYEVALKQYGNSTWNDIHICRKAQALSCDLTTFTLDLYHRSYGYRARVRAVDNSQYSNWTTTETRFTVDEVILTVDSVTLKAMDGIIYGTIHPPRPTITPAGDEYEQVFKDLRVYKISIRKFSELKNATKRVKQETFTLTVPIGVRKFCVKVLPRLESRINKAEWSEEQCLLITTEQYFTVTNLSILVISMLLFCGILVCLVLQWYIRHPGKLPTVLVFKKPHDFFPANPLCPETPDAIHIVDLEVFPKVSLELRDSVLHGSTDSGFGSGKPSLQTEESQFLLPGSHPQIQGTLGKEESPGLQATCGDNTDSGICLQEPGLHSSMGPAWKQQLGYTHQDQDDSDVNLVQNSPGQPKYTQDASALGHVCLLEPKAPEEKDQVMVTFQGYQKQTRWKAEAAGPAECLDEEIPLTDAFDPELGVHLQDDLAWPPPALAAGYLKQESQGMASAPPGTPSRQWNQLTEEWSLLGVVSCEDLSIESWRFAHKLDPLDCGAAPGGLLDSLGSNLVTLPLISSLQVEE
T1 sequence 2: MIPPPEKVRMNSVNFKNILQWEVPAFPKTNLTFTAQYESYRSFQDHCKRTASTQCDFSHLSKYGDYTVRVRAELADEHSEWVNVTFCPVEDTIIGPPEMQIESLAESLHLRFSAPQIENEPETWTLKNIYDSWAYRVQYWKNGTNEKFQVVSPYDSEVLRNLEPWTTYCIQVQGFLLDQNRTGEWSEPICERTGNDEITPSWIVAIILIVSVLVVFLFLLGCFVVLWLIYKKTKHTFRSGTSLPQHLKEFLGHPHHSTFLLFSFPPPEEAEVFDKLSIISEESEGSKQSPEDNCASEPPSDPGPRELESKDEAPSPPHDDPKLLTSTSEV
In words: cell-based or functional assay.

For assay [2], the target named is T1, mIL-10 receptors (R1 and R2). The assay is described as follows: cell-based or functional assay. The source holds these as a separate data set.

B1: Murine IL-10 (ligand)
chain: SRGQYSREDNNCTHFPVGQSHMLLELRTAFSQVKTFFQTKDQLDNILLTDSLMQDFKGYLGCQALSEMIQFYLVEVMPQAEKHGPEIKEHLNSLGEKLKTLRMRLRRCHRFLPCENKSKAVEQVKSDFNKLQDQGVYKAMNEFDIFINCIEAYMMIKMKS
For B1, in assay [1], the “EC50 (ng/mL) in MC/9 Assay” value was determined as 0.571 ng/mL.

B2: PEG-mIL-10 (ligand)
chain: B1 chain
modifications: pegylated; prepared with the SC-PEG-12K linker; attachment residue not stated
Take B2: the “MC/9 proliferation (Alamar Blue), specific activity” value in assay [2] is around 7 fold. In assay [1], the “EC50 (ng/mL) in MC/9 Assay” value was determined as 4.04 ng/mL.
